Numbering of substitutions follows the chain as printed. Names and notes keep the numbering of the source.
B1: D417C/A404L ClC-ec1 (cysteine-less background) (natural protein, E. coli)
chain: MKTDTPSLETPQAARLRRRQLIRQLLERDKTPLAILFMAAVVGTLVGLAAVAFDKGVAWLQNQRMGALVHTADNYPLLLTVAFLASAVLAMFGYFLVRKYAPEAGGSGIPEIEGALEDQRPVRWWRVLPVKFFGGLGTLGGGMVLGREGPTVQIGGNIGRMVLDIFRLKGDEARHTLLATGAAAGLAAAFNAPLAGILFIIEEMRPQFRYTLISIKAVFIGVIMSTIMYRIFNHEVALIDVGKLSDAPLNTLWLYLILGIIFGIFGPIFNKWVLGMQDLLHRVHGGNITKWVLMGGAIGGLAGLLGFVAPATSGGGFNLIPIATAGNFSMGMLVFIFVARVITTLLSFSSGAPGGIFAPMLALGTVLGTAFGMVAVELFPQYHLEAGTFAIAGMGALLAASIRLPLTGIILVLEMTCNYQLILPMIITGLGATLLAQFTGGKPLYSAILARTLAKQEAEQLARSK
notes: ClC-ec1; D417C with A404L in the cysteine-less background C85A/C302A/C347S; source: expressed and purified as in Accardi and Miller, 2004, final step Superdex 200 size exclusion
B2: Y419C ClC-ec1 (WT ClC-ec1 background) (natural protein, E. coli)
chain: B1 chain with A85C, A302C, S347C, L404A, C417D, Y419C
notes: ClC-ec1, prokaryotic CLC Cl-/H+ exchange transporter, homodimer; Y419C in the WT (native cysteines kept) background; source: expressed and purified as in Accardi and Miller, 2004, final step Superdex 200 size exclusion
B3: D417C/E148A ClC-ec1 (cysteine-less background) (natural protein, E. coli)
chain: B1 chain with E148A, L404A
notes: ClC-ec1; D417C with E148A in the cysteine-less background C85A/C302A/C347S; also called D417C in the E148A mutant background; source: expressed and purified as in Accardi and Miller, 2004, final step Superdex 200 size exclusion
B4: D417C/L361A ClC-ec1 (cysteine-less background) (natural protein, E. coli)
chain: B1 chain with L361A, L404A
notes: ClC-ec1; D417C with the Helix-N mutation L361A in the cysteine-less background C85A/C302A/C347S; also called L361A (Helix N); source: expressed and purified as in Accardi and Miller, 2004, final step Superdex 200 size exclusion
B5: D417C/F357A ClC-ec1 (cysteine-less background) (natural protein, E. coli)
chain: B1 chain with F357A, L404A
notes: ClC-ec1; D417C with the Helix-N mutation F357A in the cysteine-less background C85A/C302A/C347S; also called F357A (Helix N); source: expressed and purified as in Accardi and Miller, 2004, final step Superdex 200 size exclusion
B6: D417C ClC-ec1 (cysteine-less C85A/C302A/C347S background, called the "WT background") (natural protein, E. coli)
chain: B1 chain with L404A
notes: ClC-ec1, prokaryotic CLC Cl-/H+ exchange transporter, homodimer; D417C in the cysteine-less background C85A/C302A/C347S; E. coli is named only in the keywords; also called D417C/WT; source: expressed and purified as in Accardi and Miller, 2004, final step Superdex 200 size exclusion

Molecular target: the molecule itself
Test: cross-linking; inter-subunit disulfide between introduced cysteines, spontaneous (purified without reductant) or induced with copper-phenanthroline (CuP) for 1 h at room temperature, 0.2 mg/mL protein in Buffer A (150 mM NaCl, 10 mM HEPES pH 7.5, 5 mM DM); non-reducing SDS-PAGE, Coomassie, monomer and dimer bands quantified
B1: binds.
B2: binds.
B3: binds.
B4: binds.
B5: binds.

Molecular target: the molecule itself
Test: SEC; Superdex 200 gel filtration, before and after treatment with CuP
B6 was tested, and the “stoichiometry N” value was 2.

From publication PMC4769167 (eLife, 2016)
